Assay results from the nanobody polyreactivity screen of Harvey et al. (2022).

Experiment: yeast display, Sf9 membrane polyspecificity reagent, FACS + sequencing; frameworks hold sequencing errors
How it was run: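 A nanobody's polyreactivity label depends on the gate it was sorted from. Yeast display cells were stained with 10% biotinylated, detergent-solubilized Sf9 membrane reagent for 1 hour at 4 °C, enriched on streptavidin microbeads and sorted by FACS. The low and high (top ~1%) gates were set on anti-HA fluorescence for expression and streptavidin fluorescence for reagent binding.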

Sequence	polyreactivity (PSR sort gate)
QVQLVESGGGLVQAGGRLRLSCAASGIRSYRNGMGWYRQAPGKERELVASISKRADSTYYADSVKGRFTISRDNAKITVYLQMNSLKPEETAVYYCYVVSKVIRGLSGDGYWGQGTQGTVSS	high polyreactivity
QVQLVESGGGLVQAGGRLRLSCAASGITCYRYVMGWYRQAPGKERELVAAITSRGGSTSYADSVKGRFTISRDNAQNTVYLQMNSLKPEDTAVYYCAAVYRRDYDYWGQGTQVTVSS	high polyreactivity
QVQLVESGGGLVQAGGRLRLSCAASGITFNSYAMGWYRQAPGKERELVAAITLTGGTTYYADSVKGRFTISRDNAKNTVYLQKNSLKPEDTAVYYCAAQYWWWSRFEYDSWGQGTQVTVSS	low polyreactivity
QVQLVESGGGLVQAGGRLRLSCAASGITLRRNALVWYRQAPGKERELVARITWRGSTYYAESVKGRFTISRDNAKNTVYLQMNSLKPADTAVYYCAADYRSWQPPTKLPPGASDYWGQGTQVTVSS	low polyreactivity
QVQLVESGGGLVQAGGRLRLSCAASGLIFDSYAMGWYRQAPGKERELVAAITYTGGSTYYADSVKGRFTISRDNAKNTVYLQMNSLKPEDTAVYYCAARSQSDRYGYWGQGTQVTVSS	high polyreactivity
QVQLVESGGGLVQAGGRLRLSCAASGLTFDGYAMGWYRQAPGKERELVAAISWSGNTYYADSVKGRFKISRDNAKNTVYLQMNSLKPEDTAVYYCAVKYYHYGSWGQGTQVTVSS	high polyreactivity
QVQLVESGGGLVQAGGRLRLSCAASGLTLQRYTKGWYRQAPGTERELVAAISRSGGGTYYADSVKGRFTISRDNAKNTVYLEMNSLKPEDTAVYYCAAGWYVYRPSRGYGYWGQGTQVTVSS	high polyreactivity
QVQLVESGGGLVQAGGRLRLSCAASGNIFLDYTLGWYRQAPGKERELVAAISRGGSTYYADSVKGRFTISRDNAKNTVYLQMNSLKPEDTAVYYCNARCWEYFAHNYWGQGTQVTVSS	low polyreactivity
QVQLVESGGGLVQAGGRLRLSCAASGNIFYYYAMGWYRQAPGKERELVADIRSSGRTNYADSVKGRFTISRDNATNTVYLQMNSLKPADTAVYYCATDKWYSYADKYDYWGQGTQVTVSS	low polyreactivity
QVQLVESGGGLVQAGGRLRLSCAASGRIFAEYAMGWYRQAPGKVRELVAAISRRGGRPYYADSVKGRFTISRDNAKKPVYLQMNSLTPDDTAVYYCAADHGDPGGYDYWGQGTQVTVSS	high polyreactivity
QVQLVESGGGLVQAGGRLRLSCAASGRIFDLNAMGWYRQAPGKERELVADINSGGSTYYADSVKGRFTISRDNAKNTVYLQMNSLKPEDTAVYYCDVRRNQHVVQMYYWGQGTQVTVSS	low polyreactivity
QVQLVESGGGLVQAGGRLRLSCAASGRIFGKNVMGWYRQAPGKERELVAAISSGGSTYADSVKGRFTISRDNAKNTFYLQMNSLKPEDTAVYYCNTRPRLYGYRPSQYTYDYWGQGTQVTVSS	high polyreactivity
QVQLVESGGGLVQAGGRLRLSCAASGRIFGRYAMGWYRQAPGKERELVAAITWTGGTTYYADSVKGRFTISRDNAKNTVYLQMNSLKPEDTAVYYCAARQGYGIYGDYYYWGQGTQVTVSS	high polyreactivity
QVQLVESGGGLVQAGGRLRLSCAASGRIFTPNPMGWYRQAPGKERELVAAITTSAGRTYYADSVKGRFSISRDNAKNTVYLQMNSLKPEDTAVYYCAARYFPIRGYSWGQGSQVTVSS	high polyreactivity
QVQLVESGGGLVQAGGRLRLSCAASGRIFYTNYMGWYRHAPGKERELVAAIRSVSTYYADSVKGRFTISRDNAKNTVYLHMNSLNPEDTAVYYCNALRTNRYDYWGQGTQVTVSS	high polyreactivity
QVQLVESGGGLVQAGGRLRLSCAASGRIFYTYTMGWYRQAPGKERELVATITDGTRTNYADSVKVRFTISRDNAKITVYLQMNSLKHEDTAVYYCNAAGRWHDLYRINYDYWGQGTQVTVSS	low polyreactivity
QVQLVESGGGLVQAGGRLRLSCAASGRIISHYAMGWYRQAPGKEWELVAAISRSGGSTYYADSVKGRFTLSRDNAKNTVYLQMNSLKPEDTAVYYCAARSWPNIRCHDYWGQGTQVTVSS	high polyreactivity
QVQLVESGGGLVQAGGRLRLSCAASGRIYGLYAMGWYRQAPGKERELVAAITLSGDGTDYADSVKGRFTISRDNAKNTVYLQMTSLKPDDTAVYYCAKVGQYWWNMDYWGQGTQVTVSS	low polyreactivity
QVQLVESGGGLVQAGGRLRLSCAASGRTFIANVMGWYIQAPGKERELVAAITSGGGTSYADSVKGRFTISRDNAKNTVYLQMNSLKPEDTAVYYCNADGYLAERFVIRLDEYRDYDYWGQGTQVTVSS	low polyreactivity
QVQLVESGGGLVQAGGRLRLSCAASGRTFIGYAMGWSRQAPGKERELVAAISSTGGSTYYADSVKGRFTISRDNAKNTVYLQMNSLKPEDTAVYYCATDADRPPRTPDISYVSNFDYWGQGTQVTVSS	low polyreactivity
QVQLVESGGGLVQAGGRLRLSCAASGRTFRKYTMGWYRQAPGKEREFDAAITYSGGSTYYADSVKGRFTISRDNAKNTVYLQMNSLKPEDTAVYYCVTRGGYYLYYSYYYWGQGTQVTVSS	high polyreactivity
QVQLVESGGGLVQAGGRLRLSCAASGRTFRLYAMGWYRQAPGKERELVAAINYSDGSTYYADSVKGRFTISRDIAKNTVYLQMNSLKPEDSAVSYCAADLQSGYTIPTSIVEYHPFDYWGQGTQVTVSS	low polyreactivity

Sequence	polyreactivity (PSR sort gate)
QVQLVESGGGLVQAGGRLRLSCAASGRTFTPYTMGWYIKAPGKEREFVAAIRTGGNTYYADSVKGRFTISRDNAKNTVYLQMNSLKPEDTAVFYCAARDRIGYRLYYWGQGTQVTVSS	high polyreactivity
QVQLVESGGGLVQAGGRLRLSCAASGRTFYKNARGWYREAPGKERELVAAITNRGGSTYYADSVKGRFTISRDNAKNTVYLQMNSLKPEDTAVYYCNARRGSTGNVARWHYDYWGQGTQVTVSS	low polyreactivity
QVQLVESGGGLVQAGGRLRLSCAASGRTFYTNTMGWYRQAPGKERELVAAISYSGSSTYYADSVKGRFTISRDNAKNTGYLQINSLKPEDTAVYYCNAVRYYRYYYWGQGTQVTVSS	low polyreactivity
QVQLVESGGGLVQAGGRLRLSCAASGRTFYYNAMGWYREAPGKERELVATIGGSTYYADSVKGRFTISRDNAKNTVYLQMNSLIPEDTAVYYCAASRYSHYPRYRLTCFYYWGQGTQVTVSS	high polyreactivity
QVQLVESGGGLVQAGGRLRLSCAASGRTFYYYPMGWYRQAPGKERELVAAISWSGGSTYYADSVKGRCTISRDNAKNTVYLQLNSLKPDDTAVNYCNAVGSKGYRMDYWGQGTQVTVSA	high polyreactivity
QVQLVESGGGLVQAGGRLRLSCAASGRTIVRYVIGWYRQAPGKERELVARISFSSGSTYYADSVKGRFTISRDNAKNTVYVQMNSLIPEDTAVYYCAASPDVSFRRFSRVVSGDYWGQGTKVTVSS	high polyreactivity
QVQLVESGGGLVQAGGRLRLSCAASGRTLFYYARGWYRQEPGKEREFVPAITWSGVSTSYADSVKGRFTISRDNAKNTVYLQLNSLKPEDTAVYYCAARGYRPRLGKWLDYNYWGQGTQVTVSS	high polyreactivity
QVQLVESGGGLVQAGGRLRLSCAASGRTLYRYAMGWYRQAPGKERELVATIRRSGGSTNYADSVKGRFTISRDNAKNTVYLQMNSLKPEDTAVYYCAAVSFKPEYYYWGQGTQVTVSS	high polyreactivity
QVQLVESGGGLVQAGGRLRLSCAASGRTVNQYAMGWYRQAPGKERELVAAISWSGGRTYYADSVKGRFTISRDNDKNTDYLQMNSLKPEDTAVYYCNKLTRDGRKEDYWGQGTQVTVSS	high polyreactivity
QVQLVESGGGLVQAGGRLRLSCAASGSIFFYYAMGWYRQAPGKERELVADITSGGTTYYADSVKGRFTISRDNAKNTVSLQMNSLIPEDTAVYYCNAGLYPGQRPDYTNYSSDYWGQGTQVTVSS	low polyreactivity
QVQLVESGGGLVQAGGRLRLSCAASGSIFIYNAMGWYRQAPGKERELVATSSSGTRTYYADSVKGRFTISRDNAQNTVYFQMNSLKPEDTAVYNCAADGPFRRTYGDWGQGPQVTVSS	low polyreactivity
QVQLVESGGGLVQAGGRLRLSCAASGSIFNANAMGWYRHAPGKEREMVAGIRSGSSTNYADSVKGRFTISRDNAKNTVYLQMNSLKPEDTAVYYCATEGYWVYGFDDEYWGQGTQVTVSS	low polyreactivity
QVQLVESGGGLVQAGGRLRLSCAASGSIFQPYAMGWSRQAPGKERELVAAINGRGGSTHYADSVKGRFTISRDNAKNTVYLQMNSLKPEDTAVYYWNRPKWYDGDYWGQGTQVTVSS	high polyreactivity
QVQLVESGGGLVQAGGRLRLSCAASGSIFRPNPMGLYRQAPGKDRELVAAITWSGDSTYYADSVKGRFTISRDNAKNTVYLQMNSLKPEDTAVYYCAADFTYQGYSANDYWGQGTQVTVSS	low polyreactivity
QVQLVESGGGLVQAGGRLRLSCAASGSIFVGNTMGWYRQAPGKERELVAAISRTARTYYADSVKGRFTISRDNAKNTVYLQMNSLKPEDTAVYYCARASTQVKYGYEYWGQGTQVTVSS	high polyreactivity
QVQLVESGGGLVQAGGRLRLSCAASGSIFVKYAMGCYRHAPGKERELVATIRRSGTSTYYADSVKGRFTISRDNAMNTVYLQMNSLKPEDPAVYYCAALRSLLYRTYGYWGQGTQVTVSS	low polyreactivity
QVQLVESGGGLVQAGGRLRLSCAASGSIFYYNAMGWYRQAPGKERELVAAISRGGRTYYADSVKGRFTISRDNEKNTVYLQMNSLKPEDTAVYYCSARWSGKSINTISFDYWGQGTQVTVSS	high polyreactivity
QVQLVESGGGLVQAGGRLRLSCAASGSILGDNAMGWYRQAPGKERELVAAISYRGGSTYADSVKGRFTISRDNATNTVYLQKNSLKPDDTAVYYCNKTDIDDSQYREYEYWGQGTQVTVSS	low polyreactivity
QVQLVESGGGLVQAGGRLRLSCAASGSIYPDKAMGWYRQAPGKERELVAAIDKGTGSTNYADSVKGRFTISRDNAKITVNLQLNSLKPEDTAVYYCAKGWLTPRGGAWYDDYWGQGTQVTVSS	low polyreactivity
QVQLVESGGGLVQAGGRLRLSCAASGSTFARNAMGWYRQAPGKERELVPAISRGGSTYYADSVKGRFTISRDNAKNTVYLEMNSLKPEDTAVYYCAVYNFHYGYVWYPYDYWGQGTEVTVSS	high polyreactivity
QVQLVESGGGLVQAGGRLRLSCAASGSTFATYTMGWYRQPPGKERELVAAISVSGSRTYYADSVKGRFSISRDNAKNTVYLQMNSLKPEDTAVYYCAAANHKGSRMDYWGPGTQVTVSS	high polyreactivity
